Columns and labels:
[1] = target: T1, PIN185 fully human Id protein (human); assay: SPR (BIACORE 2000); mAb captured on anti-mouse surface, fully human Id protein as analyte, 25 C
T1 construct: Patient-derived idiotype immunoglobulin used as control antigen in SPR
Protocol: (§1) Binding constants were also determined for three of the sequenced clones (3C9, 10H7, and 20H5), as well as for two additional clones (6C9 and 15E1). The association and disassociation rates were measured by surface plasmon resonance using a BIACORE 2000 machine.
(§2) In addition, based on ELISA results, PIN185 was used as a positive control Id protein for 10H7 and 15E1 and a negative control Id protein for 3C9 and 6C9 and PIN149 was used as a non-binding Id protein for 20H5. Each mAb was captured onto an anti-mouse surface and tested for binding to the fully human Id protein. Following the mAb capture phase of the assay for the (@2 ug/ml), the fully human Id proteins were all diluted to a starting concentration of 250 nM and tested in a three fold dilution series. Each concentration was tested in duplicate. The running buffer contained PBS plus 0.005% tween-20 and 0.1 mg/ml BSA as a carrier. Binding data were collected at 25° C. […] The other data sets all fit well to a single site interaction model.

[2] = target: T2, PIN149 fully human Id protein (HV3-23 / KV4-1) (human); assay: as above
T2 construct: Recombinant patient-derived idiotype immunoglobulin used as antigen; also called PIN149 Id protein; Immunogen (for 3C9, 6C9, 10H7, 15E1); not shown: human immunoglobulin heavy chain constant region, isotype G3 (HCG3); human immunoglobulin kappa light chain constant region (KC)
Protocol: as §1, §2

[3] = target: T1, PIN185 fully human Id protein; assay: ELISA
Description: (§3) Before specificity screening, all of the clonal immunogen-positive hybridoma supernatants were re-screened on the immunogen, a non-family member Id protein, and KLH, if animals were immunized with Id protein that has been conjugated KLH. As described above, this screen identifies HC-specific clones but not mAbs against the light chain constant region. Clones identified positive to the immunogen and KLH were […]. Those found positive to the immunogen but not to the non-family member Id protein or KLH were tittered on the immunogen. In addition to normalizing for different binding affinities and concentrations, each hybridoma supernatant was titered on the fully human form of the Id protein used as the immunogen(s) for the V regions. The titer or dilution resulting in an ELISA absorbance of 2.5 to 3 OD after 30 min. incubation time was then used. Hybridoma specificity was determined by screening against available Id proteins expressing the same HV and KV or LV as well as different HV, KV and LV. The final ELISA results are expressed as follows: 0 (<0.5 OD), 1 (0.5-1.0 OD), or 4 (1-4 OD). Positive hybridoma supernatants are categorized according to specificity: anti-Id, anti-constant region (HC, KC or LC), or V region (HV, KV, LV family or family member).
(§4) In general, the fully human Id protein or proteins containing the immunogen V regions were coated onto 96-well ELISA plates at 2.5-5 ug/mL in carbonate buffer pH 9.6 and incubated at 4° C. for up to 14 days. On the day of the ELISA, plates were brought to RT and blocked with Tris-Tween-20, pH 7.6 for 15-60 min. at RT. Following a NaCl and Triton X-100 wash, diluted hybridoma cell culture supernatants were incubated overnight at 4° C. Hybridoma supernatant dilutions ranged from 1:2 to 1:25 and were prepared in PBS with 5% BSA. Plates were washed and incubated with HRP-conjugated goat anti-mouse IgG-specific detecting antibody. A chromogenic substrate (TMB) was used to measure the amount of mouse antibody bound to each well. The reaction was stopped at or before 30 minutes with IN H2SO4 and plates were read immediately. Absorbency readings at 450 nm ranging between 0-4 OD and using Molecular Devices plate reader and SOFTMAX PRO software.

[4] = target: T3, 204; assay: ELISA
T3 construct: H3-15 K4-1; also called PIN204
Description: as §3, §4

[5] = target: T4, 839; assay: ELISA
T4 construct: H3-23 K4-1; also called PIN839
Description: as §3, §4

[6] = target: T5, 792; assay: ELISA
T5 construct: H1-3 K4-1; also called PIN792
Description: as §3, §4

[7] = target: T6, 1154; assay: ELISA
T6 construct: H4-61 K4-1; also called PIN1154
Description: as §3, §4

[8] = target: T7, 1145; assay: ELISA
T7 construct: H3-11 K4-1; also called PIN1145
Description: as §3, §4

[9] = target: T8, 844; assay: ELISA
T8 construct: H3-7 K4-1; also called PIN844
Description: as §3, §4

[10] = target: T9, 628; assay: ELISA
T9 construct: fully human Id protein; also called PIN628
Description: as §3, §4

[11] = target: T2, PIN149 fully human Id protein (HV3-23 / …); assay: ELISA
Description: as §3, §4

[12] = target: T10, 952; assay: ELISA
T10 construct: H3-66 K4-1; also called PIN952
Description: as §3, §4

[13] = target: T11, 950; assay: ELISA
T11 construct: H4-59 K4-1; also called PIN950
Description: as §3, §4

[14] = target: T12, 1023; assay: ELISA
T12 construct: H4-4 K4-1; also called PIN1023
Description: as §3, §4

[15] = target: T13, 898; assay: ELISA
T13 construct: H3-15 K4-1; also called PIN898
Description: as §3, §4

[16] = target: T14, 112; assay: ELISA
T14 construct: H4-39 K4-1; also called PIN112
Description: as §3, §4

[17] = target: T15, 199; assay: ELISA
T15 construct: H3-7 K4-1; also called PIN199
Description: as §3, §4

[18] = target: T16, 192; assay: ELISA
T16 construct: H5-51 K4-1; also called PIN192
Description: as §3, §4

[19] = target: T17, 1014; assay: ELISA
T17 construct: H3-53 K4-1; also called PIN1014
Description: as §3, §4

[20] = target: T18, 763; assay: ELISA
T18 construct: H4-59 K4-1; also called PIN763
Description: as §3, §4

[21] = target: T19, 179; assay: ELISA
T19 construct: H3-11 K4-1; also called PIN179
Description: as §3, §4

[22] = target: T20, 529; assay: ELISA
T20 construct: H3-48 K4-1; also called PIN529
Description: as §3, §4

[23] = target: T21, 591; assay: ELISA
T21 construct: H3-23 K4-1; also called PIN591
Description: as §3, §4

[24] = target: T22, 626; assay: ELISA
T22 construct: H5-51 K4-1; also called PIN626
Description: as §3, §4

[25] = target: T23, 987; assay: ELISA
T23 construct: H3-23 K4-1; also called PIN987
Description: as §3, §4

[26] = target: T24, 791; assay: ELISA
T24 construct: H3-30 K4-1; also called PIN791
Description: as §3, §4

[27] = target: T25, 1088; assay: ELISA
T25 construct: H2-5 K4-1; also called PIN1088
Description: as §3, §4

[28] = target: T26, 659; assay: ELISA
T26 construct: H3-21 K4-1; also called PIN659
Description: as §3, §4

[29] = target: T27, 913; assay: ELISA
T27 construct: fully human Id protein; also called PIN913
Description: as §3, §4

[30] = target: T28, 170; assay: ELISA
T28 construct: H4-34 K4-1; also called PIN170
Description: as §3, §4

[31] = target: T29, 128; assay: ELISA
T29 construct: H3-23 K1-27; also called PIN128
Description: as §3, §4

[32] = target: T30, 540; assay: ELISA
T30 construct: H3-23 K3-20; also called PIN540
Description: as §3, §4

[33] = target: T31, 571; assay: ELISA
T31 construct: H3-23 K3-11; also called PIN571
Description: as §3, §4

[34] = target: T32, 352; assay: ELISA
T32 construct: H3-23 K1-39; also called PIN352
Description: as §3, §4

[35] = target: T33, 547; assay: ELISA
T33 construct: also called PIN547
Description: as §3, §4

[36] = target: T34, 617; assay: ELISA
T34 construct: H3-23, VL 1-44, LC printed K; also called PIN617
Description: as §3, §4

[37] = target: T35, 551; assay: ELISA
T35 construct: H3-23 L1-40; also called PIN551
Description: as §3, §4

[38] = target: T36, 210; assay: ELISA
T36 construct: H3-23 K3-11; also called PIN210
Description: as §3, §4

[39] = target: T37, 203; assay: ELISA
T37 construct: H3-23 L1-47; also called PIN203
Description: as §3, §4

[40] = target: T38, 522; assay: ELISA
T38 construct: H3-23 L1-40; also called PIN522
Description: as §3, §4

[41] = target: T39, 778; assay: ELISA
T39 construct: H3-23 K3-11; also called PIN778
Description: as §3, §4

[42] = target: T40, 834; assay: ELISA
T40 construct: H3-23 K1-5; also called PIN834
Description: as §3, §4

[43] = target: T41, 232; assay: ELISA
T41 construct: H3-23 K1-6; also called PIN232
Description: as §3, §4

[44] = target: T42, 213; assay: ELISA
T42 construct: H3-23 L1-51; also called PIN213
Description: as §3, §4

[45] = target: T43, 850; assay: ELISA
T43 construct: H3-23 K2-30; also called PIN850
Description: as §3, §4

[46] = target: T44, 576; assay: ELISA
T44 construct: H3-23 L1-51; also called PIN576
Description: as §3, §4

T2 sequence (VH, as listed by the source, chain 1 of 2): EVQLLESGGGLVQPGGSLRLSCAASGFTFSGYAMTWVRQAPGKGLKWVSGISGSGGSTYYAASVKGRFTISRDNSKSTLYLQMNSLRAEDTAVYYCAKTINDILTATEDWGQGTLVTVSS
T2 sequence (VL, as listed by the source, chain 2 of 2): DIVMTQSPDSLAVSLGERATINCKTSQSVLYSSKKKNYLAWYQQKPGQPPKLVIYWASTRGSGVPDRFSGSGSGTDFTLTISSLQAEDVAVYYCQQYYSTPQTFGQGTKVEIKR
T27 sequence (heavy, as listed by the source): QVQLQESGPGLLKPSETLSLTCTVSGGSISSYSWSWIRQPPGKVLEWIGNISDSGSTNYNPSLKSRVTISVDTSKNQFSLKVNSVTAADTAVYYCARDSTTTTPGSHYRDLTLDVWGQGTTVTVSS
T9 sequence (VH, as listed by the source, chain 1 of 2): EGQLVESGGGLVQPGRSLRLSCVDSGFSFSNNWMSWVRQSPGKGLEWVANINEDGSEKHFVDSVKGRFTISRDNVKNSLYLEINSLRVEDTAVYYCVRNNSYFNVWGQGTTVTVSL
T9 sequence (VL, as listed by the source, chain 2 of 2): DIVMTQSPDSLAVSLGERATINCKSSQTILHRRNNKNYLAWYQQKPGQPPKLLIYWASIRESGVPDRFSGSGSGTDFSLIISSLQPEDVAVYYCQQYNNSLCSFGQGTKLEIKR

B1: mAb clone 10H7 (antibody, V domains shown)
VH: EVQLVESGGGLVKPGGSLKLSCTASGFTFSSYAMSWVRQSPEKRLEWVAEISSGGIHTYYSDTVTGRFSISRDNAKNSTLYLEMNSLRSEDTAIYYCARETTGTWGQGTLVTVSA
VL: QIVLTQSPAIMSASPGEKVTMTCSVSSSITYMHWFRQKPGTSPKLWIYTTSNLASGVPARFSGSGSGTSYSLTISRMEAEDAATYYCQQRSRYPFTFGSGTKLEIKR
notes: Mouse hybridoma mAb, fusions 13/14 (immunogen PIN149 chimera-KLH)
3 nM: Kd [1]
3.8e-05 s⁻¹: koff [2]
9.9e-05 s⁻¹: koff [1]
4: grade [3] | grade [4] | grade [5] | grade [6] | grade [7] | grade [8] | grade [9] | grade [10] | grade [11] | grade [12] | grade [13] | grade [14] | grade [15] | grade [16] | grade [17] | grade [18] | grade [19] | grade [20] | grade [21] | grade [22] | grade [23] | grade [24] | grade [25] | grade [26] | grade [27] | grade [28] | grade [29] | grade [30]
0.83 nM: Kd [2]
45400 M⁻¹ s⁻¹: kon [2]
33200 M⁻¹ s⁻¹: kon [1]

B2: mAb clone 3C9 (antibody, V domains shown)
VH: EVQLQQSGPELEKPGASVKISCKASGYSFTAYNMNWVKQNNGKSLEWIGNIDPYHGGTNYNQKFKGKATLTVDKSSSTAYMQLKSLTSEDYAVYYCARGGGDWSWFAYWGQGTLVTVSA
VL: DIVMTQSHKFMSTSVGDRVSITCKASQDVNTAVAWYQQKPGQSPKVLIYWASNRHTGVPDRFTGSGSGTDYTLTISSMQAEDLALYYCHQHYSTPWTFGGGTKLEIER
notes: Mouse hybridoma mAb, fusions 13/14 (immunogen PIN149 chimera-KLH); also called anti-IGHV3-23 monoclonal 3C9
0.000134 s⁻¹: koff [2]
1: grade [44]
1.78 nM: Kd [2]
4: grade [31] | grade [32] | grade [11] | grade [33] | grade [34] | grade [35] | grade [36] | grade [37] | grade [38] | grade [39] | grade [40] | grade [23] | grade [41] | grade [42] | grade [43] | grade [45] | grade [46]
74900 M⁻¹ s⁻¹: kon [2]

Source: patent US20070134249A1 (GENITOPE, published 2007)
